Experimental data reported in the supplement of paper PMC12042874.
± gives the uncertainty stated by the source.

Test: amyloid nucleation score (Sup35N fusion, yeast selection) (log enrichment); library NNK3; higher = more nucleation; inactive = no reads after selection
Method in brief: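 Nucleation score: DiMSum log enrichment of output over input reads, centred on the mode score of non-aggregating sequences. Only sequences with at least 100 input reads were kept. Reads came from Illumina sequencing of plasmid inserts before and after 7 days of growth at 30°C without adenine and uracil, in psi-negative yeast expressing Sup35N fused to peptides of 20 random codons after 24 hours of induction with 100 μM copper sulfate.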
SCSWVREWYRRLHRWGCGQW gave an amyloid nucleation score of 0.656 ± 0.28.
In the case of SFPINGYMFSGYLERWCFTS, the amyloid nucleation score is reported as “inactive”.
With HSCCDEWRDNGEIGNSSNRE the amyloid nucleation score was “inactive”.
STRTWQRF gave an amyloid nucleation score of -0.014 ± 0.28.
With FFLGVSDSMKFLYLMPTEFD the amyloid nucleation score was “inactive”.
SAQFRFKSSV gave an amyloid nucleation score of 1.35 ± 0.089.
In the case of SFLRYNKSY, the amyloid nucleation score is reported as “inactive”.
With SYMWPMSWQET the amyloid nucleation score was “inactive”.
In the case of RTSVISISSLILALRGLYSR, the amyloid nucleation score is reported as “inactive”.
FNVYFGAIVFKEDLPCSYSA gave an amyloid nucleation score of 1.23 ± 0.12.
Substance VDVERIQFRSICLCLSTFCV has an amyloid nucleation score of 1.53 ± 0.081.
For LSSWTNLLIWSLNLCPVMFV, the amyloid nucleation score was “inactive”.
In the case of STSYSSAL, the amyloid nucleation score is reported as “inactive”.
In the case of PAQLHNTVHL, the amyloid nucleation score is reported as “inactive”.
Substance RSSDVRQYTLMCNWSKHVVL has an amyloid nucleation score of 0.089 ± 0.54.
With RYTNAYRQASLRV the amyloid nucleation score was “inactive”.
For GFGHGLKFRPRDRWGSIYPY, the amyloid nucleation score was “inactive”.
For NRFVNLSNRMVYDFRYRMAV, the amyloid nucleation score was “inactive”.
For SNDMRGLVGEEIGFLSWN, the amyloid nucleation score was “inactive”.
For MCMSVCFSK, the amyloid nucleation score was “inactive”.
In the case of YNYKSLMHLIGYDNRIAESR, the amyloid nucleation score is reported as “inactive”.
With PVLGPAEGITIGRGV the amyloid nucleation score was “inactive”.
For DLFDSRVVSSDAVSCYYAAS, the amyloid nucleation score was “inactive”.
In the case of GCSLTWAVAEALTILVNAYT, the amyloid nucleation score is reported as “inactive”.
In the case of YFLDLL, the amyloid nucleation score is reported as “inactive”.
With NLDRLWTNQGFAFWIRTYVV the amyloid nucleation score was “inactive”.
With SYFNRYRCSSCHKPGYDHTW the amyloid nucleation score was “inactive”.
In the case of SWWVTGIALEHGSGLTVQVH, the amyloid nucleation score is reported as “inactive”.
In the case of CGRRALSTELIVCLCSPFYV, the amyloid nucleation score is reported as “inactive”.
In the case of FSIVELTLSRLK, the amyloid nucleation score is reported as “inactive”.
In the case of FSFFRGTRLGKSARIAERFE, the amyloid nucleation score is reported as “inactive”.
In the case of INSRKSHGLSEPSHYQT, the amyloid nucleation score is reported as “inactive”.
In the case of ALSRMGEFEDYCLTMGKKVF, the amyloid nucleation score is reported as “inactive”.
For LWSLHMESDWGVRIHSRSLI, the amyloid nucleation score was “inactive”.
In the case of CVGYMGLGALEYIVNAHGGI, the amyloid nucleation score is reported as “inactive”.
With TYLCGFHLYCC the amyloid nucleation score was “inactive”.
With FWLYYNFQFLDDC the amyloid nucleation score was “inactive”.
In the case of AMSTGSSTWWYRSSKAIRGS, the amyloid nucleation score is reported as “inactive”.
For GVPLQWSSHAWGFFCWKTPW, the amyloid nucleation score was “inactive”.
With SYSADLKLMIWSCLNLVVFQ the amyloid nucleation score was “inactive”.
For ASDKMELILLLTSYRSYYDC, the amyloid nucleation score was “inactive”.
In the case of NWGMTNAFFISGKRSGMSSM, the amyloid nucleation score is reported as 0.42 ± 0.38.
For NASNHSVSTRCVVDRG, the amyloid nucleation score was “inactive”.
With TEFPQEEPGTSLAQFP the amyloid nucleation score was -0.69 ± 1.1.
With TYIPFIIYLIGCVLVYVYVL the amyloid nucleation score was “inactive”.
With YPMRCTCMDGGNSWDLM the amyloid nucleation score was 0.177 ± 0.27.
With CKVTHSLI the amyloid nucleation score was “inactive”.
In the case of YHFLACCKLVGRRWWFGLQR, the amyloid nucleation score is reported as “inactive”.
With DIMLYSWITCIMSSAPPRDN the amyloid nucleation score was 1.74 ± 0.11.
For CPCMLMMFSVGLTSSSPILC, the amyloid nucleation score was 0.268 ± 0.44.
For SLLDDRSPGLWILKTKVTAF, the amyloid nucleation score was “inactive”.
FGLGQIRFSHIICLNLILSL showed an amyloid nucleation score of 2.29 ± 0.056.
LNMGVTRLDLISLGWGSVSL showed an amyloid nucleation score of -0.41 ± 0.75.
For DPVEIRG, the amyloid nucleation score was “inactive”.
For VGFPESPFDSLCAMCALQWV, the amyloid nucleation score was “inactive”.
For VLLMRNAVIYPGSGMSSSSA, the amyloid nucleation score was “inactive”.
In the case of SVESECRDMFSFKGFCVCVK, the amyloid nucleation score is reported as “inactive”.
For GSMLTDIVCFKYKVWDPIIL, the amyloid nucleation score was “inactive”.
With TADYDYQAEVCCLVIMCVHN the amyloid nucleation score was “inactive”.
In the case of NYICVK, the amyloid nucleation score is reported as “inactive”.
With RHRASGLFP the amyloid nucleation score was “inactive”.
For GYTIYGRVNPLVCPWVLVSE, the amyloid nucleation score was “inactive”.
Work on EVSSGCCERGVYLMLLCTGT yielded an amyloid nucleation score of 0.091 ± 0.53.
For NIAIVW, the amyloid nucleation score was “inactive”.
With FQTGPRYAWGLQTGLNKQVC the amyloid nucleation score was “inactive”.
